We go through seven molecules from patent US9951111B2, “Type I interferon mimetics as therapeutics for cancer, viral infections, and multiple sclerosis” (priority 2011, dated 2018).

Ends that are not written are not given here.

In data set [1] the test system is vesicular stomatitis virus (VSV). The class given is cell-based.
Data set [2] relates to vaccinia virus. The class given is in vivo, mice (C57BL/6). The settings on record: i.n. infection; peptides 200 μg or murine IFNα1 2,000 U i.p. for six consecutive days; FIG. 12.
Data set [3] can be described thus: Body weight of mice under IFNα1 or lipo-peptide (FIG. 13). To be noted: 5×10^3 U/mouse i.p. on alternate days (peptide 100 μg), day 11 difference p<0.05.
For another data set, the system named is EMC virus. The class given is cell-based, encephalomyocarditis (EMC) virus.
Data set [4] can be described thus: IFN toxicity in vivo: body weight (FIG. 7). To be noted: 2,000 U per mouse of IFN mimetic I.P. on alternate days.
In a further data set the test system is lymphocytes. Briefly: IFN toxicity in vivo: lymphocyte count on blood smears (Table 4). To be noted: day 11, i.p. alternate days for ten days, IFN mimetics 2 × 10^3 U in 200 μg per mouse, IFNβ 10^3 U/mouse; for % Reduction (lymphocytes): versus PBS.
Data set [5] deals with vaccinia virus. The class given is cell-based.
Data set [6] relates to experimental allergic encephalomyelitis (EAE) in SJL/J mice. Briefly: Relapsing/remitting EAE in SJL/J mice immunized with MBP. The class given is in vivo. To be noted: 15 μg/mouse i.p. every other day from day 12 post-immunization with MBP; FIG. 6C.

On to “lipo-IFNτ(156-195) (EKGYSDCAWEIVRVEMMRALTSSTTLQKRLTKTGGDLNSP; also: lipid attached)”, for which the “antiviral activity against vesicular stomatitis virus (VSV)” value (“antiviral activity … (VSV)” for short) in data set [1] is “showed antiviral activity”.

As for “lipo-IFNβ(150-187) (ILHYLKAKEYSHCAWTIVRVEILRNFYFINRLTGYLRN; also: lipidated; UniProt P01574 150-187, looked up, fragment)”, the “antiviral activity … (VSV)” value in data set [1] is “showed antiviral activity”.

In the case of “lipo-IFNα1(152-189) (LYLTEKKYSPCAWEVVRAEIMRSLSLSTNLQERLRRKE; also: lipid attached; listed as Homo sapiens)”, the “antiviral activity … (VSV)” value in data set [1] is given as “showed antiviral activity”. In addition, in the data set on vaccinia virus [2], the “protection against vaccinia virus lethal infection (survival)” value is given as “inhibited vaccinia virus lethal infection of mice”. In addition, the weight loss entry in data set [3] is on record as “not seen”.

B1: IFNβ(100-187)R9 (protein)
chain: RRRRRRRRRWNETIVENLLANVYHQINHLKTVLEEKLEKEDFTRGKLMSSLHLKRYYGRILHYLKAKEYSHCAWTIVRVEILRNFYFINRLTGYLRN
For the molecule B1, the “antiviral activity against EMC virus” value in the data set with EMC virus was “possessed antiviral activity”. Also, in data set [4], the body weight change entry is reported as “gained weight”. Also, in the data set with lymphocytes, the “Lymphocytes (%)” value came out at 72 ± 5% and the “% Reduction (lymphocytes)” value is listed as 9%.

B2: IFNα1 (protein, UniProt P01562 24-189, looked up)
Interferon alpha-1/13: CDLPETHSLDNRRTLMLLAQMSRISPSSCLMDRHDFGFPQEEFDGNQFQKAPAISVLHELIQQIFNLFTTKDSSAAWDEDLLDKFCTELYQQLNDLEACVMQEERVGETPLMNADSILAVKKYFRRITLYLTEKKYSPCAWEVVRAEIMRSLSLSTNLQERLRRKE
As to B2, in the data set with vaccinia virus [5], the “protection against vaccinia virus (VV) infection” value is given as “did not protect”. In addition, in the data set with vaccinia virus [2], the “protection against vaccinia virus lethal infection (survival)” value is listed as “ineffective”. Besides, the weight loss entry in data set [3] is “weight loss seen”.

B3: IFNα1(69-189) (protein, listed as Homo sapiens)
chain: NQFQKAPAISVLHELIQQIFNLFTTKDSSAAWDEDLLDKFCTELYQQLNDLEACVMQEERVGETPLMNADSILAVKKYFRRITLYLTEKKYSPCAWEVVRAEIMRSLSLSTNLQERLRRKE
On to B3, for which the “therapeutic efficacy in EAE (mean daily severity of disease)” value in data set [6] was “developed paraplegia”.

B4: IFNα1(69-189)R9 (protein)
chain: RRRRRRRRRNQFQKAPAISVLHELIQQIFNLFTTKDSSAAWDEDLLDKFCTELYQQLNDLEACVMQEERVGETPLMNADSILAVKKYFRRITLYLTEKKYSPCAWEVVRAEIMRSLSLSTNLQERLRRKE
Consider B4, for which the “antiviral activity against EMC virus” value in the data set on EMC virus is on record as “possessed antiviral activity”. Also, the “therapeutic efficacy in EAE (mean daily severity of disease)” value in data set [6] is “essentially complete therapeutic efficacy”. The body weight change result in data set [4] is reported as “gained weight”. Besides, in the data set with lymphocytes, the “Lymphocytes (%)” value is 75 ± 3% and the “% Reduction (lymphocytes)” value was determined as 4%.
